The results in this text go back to US20220340657A1.

The target in assay [1] is cyno-LAG3-hFc (cynomolgus monkey). The assay can be described thus: Biacore. Background: Surface plasmon resonance follows binding to a sensor surface in real time, without labels.
Assay [2] has the same target. The assay can be described thus: ELISA. For orientation: In an ELISA, binding on a coated surface is turned into a signal by an enzyme label.

The Kd is the equilibrium constant for the complex coming apart. A lower Kd goes with tighter binding. Usually EC50 stands for the concentration needed to bring the measured effect to its halfway point. A lower EC50 goes with a more potent agent. In assay [1], “positive control antibody Ref (BMS-986016)” yielded a Kd of 836 nM. Besides, in assay [2], the EC50 came to 35.3 nM.
